Experimental findings from patent CN113817056A (CHONGQING PREC BIOTECH CO LTD; CHONGQING JINGZHUN BIO …, dated 2021) are described below.

Assay [1] concerns the target T1, hCD70-hFc (human, UniProt P32970 39-193, limits assumed).
T1 construct: the order here follows the printed name; not shown: human immunoglobulin Fc (hFc)
T1 sequence (looked up): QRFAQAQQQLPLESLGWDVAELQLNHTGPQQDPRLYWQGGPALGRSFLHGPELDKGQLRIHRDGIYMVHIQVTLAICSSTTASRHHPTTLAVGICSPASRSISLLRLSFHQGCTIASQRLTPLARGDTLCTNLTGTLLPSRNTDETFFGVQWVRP
Nature of the assay: BLI, scFv on HIS1K sensor, hCD70-hFc analyte; row for 25 nM (same fit value in all rows). In general terms: In BLI a coated tip is dipped into the sample, and binding shifts an interference pattern.

Assay [2] concerns the target T1, hCD70-hFc. The experiment in a line: BLI, scFv on HIS1K sensor, hCD70-hFc analyte; row for 50 nM (same fit value in all rows).
For assay [3], the target named is T1, hCD70-hFc. The experiment in a line: BLI, scFv on HIS1K sensor, hCD70-hFc analyte; row for 100 nM (same fit value in all rows).
The target in assay [4] is T1, hCD70-hFc. Nature of the assay: BLI, scFv on HIS1K sensor, hCD70-hFc analyte; row for 12.5 nM (same fit value in all rows).

B1: 靶向CD70 ScFv (scFv, V domains shown)
VH: EVQLVQSGPEVKKPGASVKVSCKASGYTFTDYYMNWVRQMHGKGLEWMGVINPYNGGTDYNQKFKGRVTITADKSTSTAYMELSSLRSEDTAVYYCARSVYDYPFDYWGQGTLVTVSS
VL: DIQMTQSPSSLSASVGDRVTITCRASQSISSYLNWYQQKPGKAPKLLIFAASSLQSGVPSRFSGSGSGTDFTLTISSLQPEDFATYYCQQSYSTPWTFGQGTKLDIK
As a reminder, the Kd is the equilibrium constant for the complex coming apart. Low readings indicate tighter binding, high ones weaker binding. What is called koff is the rate constant with which the complex falls apart. A lower koff goes with a long-lived complex. By kon is commonly meant the rate constant with which the complex forms. The low end stands for slower complex formation, the high end for faster complex formation. On to B1, for which the equilibrium dissociation constant (Kd) in assay [1], in assay [2], in assay [3] and in assay [4] was 21.4 nM each time. Also, the koff in assay [1], in assay [2], in assay [3] and in assay [4] was 0.0016 s⁻¹ in each case. The on-rate (kon) in assay [1], in assay [2], in assay [3] and in assay [4] was 74000 M⁻¹ s⁻¹ throughout.
